According to patent US20230134571A1 (INTERNATIONAL AIDS VACCINE INITIATIVE, published 2023):

Legend:
Test in all cases: cell-based or functional assay
[1] = biological target: HIV Env of isolate MS208.A1 (clade A) (HIV)
[2] = biological target: HIV Env of isolate 3817.v2.c59 (clade CD) (HIV)
[3] = biological target: HIV Env of isolate 6480.v4.c25 (clade CD) (HIV)
[4] = biological target: HIV Env of isolate A07412M1.vrc12 (clade D) (HIV)
[5] = biological target: HIV Env of isolate Q461.e2 (clade A) (HIV)
[6] = biological target: HIV Env of isolate Q769.d22 (clade A) (HIV)
[7] = biological target: HIV Env of isolate 0815.v3.c3 (clade ACD) (HIV)
[8] = biological target: HIV Env of isolate T250-4 a.k.a. CRF250 (clade AG) (HIV)
[9] = biological target: HIV Env of isolate 1056_10_TA11_1826 (clade B) (HIV)
[10] = biological target: HIV Env of isolate Ce704809221_1B3 (clade C) (HIV)
[11] = biological target: HIV Env of isolate ZM197M.PB7 (clade C) (HIV)
[12] = biological target: HIV Env, isolate AC10.0.29 (HIV)
[13] = biological target: HIV Env, isolate CNE17 (HIV)
[14] = biological target: HIV Env, isolate Ce0393_C3 (HIV)
[15] = biological target: HIV Env, isolate Ce2060_G9 (HIV)
[16] = biological target: HIV Env, isolate ZM109F.PB4 (HIV)
[17] = biological target: HIV Env, isolate ZM53M.PB12 (HIV)
[18] = biological target: HIV Env, isolate 6811.v7.c18 (HIV)
[19] = biological target: HIV Env, isolate X1254_C3 (HIV)

B1: ePGDM13 (antibody, V domains shown)
VH: QAQLVQSGPEVRKPGTSVKVSCKNPGNTLTTYDLHWVRQVPGQGLQWMGWISHEGDKKVIVERFKAKVTIDWDRSTNTAYLQLSGLTSEDTAVYYCAKGSKHRLRDYALYDEDGALNWAVDVDYLANLEFWGQGTAVTVSS
VL: DIVLTQSPLSLSVTPGESASISCKSSHSLQHGDRNNYLAWYVQKPGRSPQLLLDLASERASGVPDRFSGSGSEKDFTLKISRVETEDVGTYYCMQGRESPWTFGQGTKVDIK
- IC50 (µg/ml) with constrains [1]: 0.027 µg/mL
- IC80 (µg/ml) with constrains [1]: 0.109 µg/mL
- IC50 (µg/ml) with constrains [2]: 14 µg/mL
- IC50 (µg/ml) with constrains [3]: > 100 µg/mL
- IC50 (µg/ml) with constrains [4]: 0.029 µg/mL
- IC50 (µg/ml) with constrains [5]: 0.132 µg/mL
- IC80 (µg/ml) with constrains [5]: 0.528 µg/mL
- IC50 (µg/ml) with constrains [6]: 0.002 µg/mL
- IC80 (µg/ml) with constrains [6]: 0.01 µg/mL
- IC50 (µg/ml) with constrains [7]: > 100 µg/mL
- IC80 (µg/ml) with constrains [7]: > 100 µg/mL
- IC50 (µg/ml) with constrains [8]: 0.035 µg/mL
- IC80 (µg/ml) with constrains [8]: 0.14 µg/mL
- IC50 (µg/ml) with constrains [9]: 1.51 µg/mL
- IC50 (µg/ml) with constrains [10]: 0.339 µg/mL
- IC50 (µg/ml) with constrains [11]: 0.06 µg/mL

B2: ePGDM5 (antibody, V domains shown)
VH: QAQLVQSGPEVRKPGTSVKVSCKNPGNTLTTYDLHWVRQVPGQGLQWMGWISHEGDKKVIVERFKAKVTIDWDRSTNTAYLQLSGLTSEDTAVYYCAKGSKHRLRDYALYDEDGALNWAVDVDYLANLEFWGQGTAVTVSS
VL: DFVLTQSPLSLSVTPGESASISCKSDHSLQHGDRNNYLAWYVQKPGRSPQLLIDLASERASGVPDRFSGSGSRKDFTLKIDRVEAEDVGTYYCMQGRESPWTFGQGTKVDIK
- IC50 (µg/ml) with constrains [1]: 0.007 µg/mL
- IC80 (µg/ml) with constrains [1]: 0.029 µg/mL
- IC50 (µg/ml) with constrains [2]: 0.232 µg/mL
- IC50 (µg/ml) with constrains [3]: > 100 µg/mL
- IC50 (µg/ml) with constrains [4]: 0.009 µg/mL
- IC50 (µg/ml) with constrains [5]: 0.104 µg/mL
- IC80 (µg/ml) with constrains [5]: 0.415 µg/mL
- IC50 (µg/ml) with constrains [6]: 0.003 µg/mL
- IC80 (µg/ml) with constrains [6]: 0.011 µg/mL
- IC50 (µg/ml) with constrains [7]: > 100 µg/mL
- IC80 (µg/ml) with constrains [7]: > 100 µg/mL
- IC50 (µg/ml) with constrains [8]: 0.065 µg/mL
- IC80 (µg/ml) with constrains [8]: 0.261 µg/mL
- IC50 (µg/ml) with constrains [9]: 0.893 µg/mL
- IC50 (µg/ml) with constrains [10]: 0.187 µg/mL
- IC50 (µg/ml) with constrains [11]: 0.035 µg/mL

B3: ePGDM9 (antibody, V domains shown)
VH: QAQLVQSGPEVRKPGTSVKVSCKNPGNTLTTYDLHWVRQVPGQGLQWMGWISHEGDKKVIVERFKAKVTIDWDRSTNTAYLQLSGLTSEDTAVYYCAKGSKHRLRDYALYDEDGALNWAVDVDYLANLEFWGQGTAVTVSS
VL: DIVLTQSPLSLSVTPGESASISCKSSQSLIHGDRNNYLAWYVQKPGRSPQLLIDLASERASGVPDRFSGSGSRKDFTLKISRVETEDVGTYYCMQGRESPWTFGQGTKVDIK
- IC50 (µg/ml) with constrains [1]: 0.009 µg/mL
- IC80 (µg/ml) with constrains [1]: 0.036 µg/mL
- IC50 (µg/ml) with constrains [2]: 0.16 µg/mL
- IC50 (µg/ml) with constrains [3]: > 100 µg/mL
- IC50 (µg/ml) with constrains [4]: 0.026 µg/mL
- IC50 (µg/ml) with constrains [5]: 0.06 µg/mL
- IC80 (µg/ml) with constrains [5]: 0.24 µg/mL
- IC50 (µg/ml) with constrains [6]: 0.002 µg/mL
- IC80 (µg/ml) with constrains [6]: 0.009 µg/mL
- IC50 (µg/ml) with constrains [7]: > 100 µg/mL
- IC80 (µg/ml) with constrains [7]: > 100 µg/mL
- IC50 (µg/ml) with constrains [8]: 0.041 µg/mL
- IC80 (µg/ml) with constrains [8]: 0.163 µg/mL
- IC50 (µg/ml) with constrains [9]: 0.903 µg/mL
- IC50 (µg/ml) with constrains [10]: 0.135 µg/mL
- IC50 (µg/ml) with constrains [11]: 0.023 µg/mL

B4: PGDM1400 (antibody, V domains shown)
VH: QVHLTQSGPEVRKPGTSVKVSCKAPGNTLKTYDLHWVRSVPGQGLQWMGWISHEGDKKVIVERFKAKVTIDWDRSTNTAYLQLSGLTSGDTAVYYCAKGSKHRLRDYALYDDDGALNWAVDVDYLSNLEFWGQGTAVTVSS
VL: DFVLTQSPHSLSVTPGESASISCKSSHSLIHGDRNNYLAWYVQKPGRSPQLLIYLASSRASGVPDRFSGSGSDKDFTLKISRVETEDVGTYYCMQGRESPWTFGQGTKVDIK
- IC50 (µg/ml) with constrains [1]: 0.01 µg/mL
- IC80 (µg/ml) with constrains [1]: 0.041 µg/mL
- IC50 (µg/ml) with constrains [2]: > 100 µg/mL
- IC50 (µg/ml) with constrains [3]: > 100 µg/mL
- IC50 (µg/ml) with constrains [4]: 0.029 µg/mL
- IC50 (µg/ml) with constrains [5]: 0.143 µg/mL
- IC80 (µg/ml) with constrains [5]: 0.572 µg/mL
- IC50 (µg/ml) with constrains [6]: 0.007 µg/mL
- IC80 (µg/ml) with constrains [6]: 0.028 µg/mL
- IC50 (µg/ml) with constrains [7]: > 100 µg/mL
- IC80 (µg/ml) with constrains [7]: > 100 µg/mL
- IC50 (µg/ml) with constrains [8]: 0.28 µg/mL
- IC80 (µg/ml) with constrains [8]: 1.12 µg/mL
- IC50 (µg/ml) with constrains [9]: 3.38 µg/mL
- IC50 (µg/ml) with constrains [10]: 0.32 µg/mL
- IC50 (µg/ml) with constrains [11]: 0.071 µg/mL

B5: ePGDM5 (antibody, V domains shown)
VH: QAQLVQSGPEVRKPGTSVKVSCKNPGNTLTTYDLHWVRQVPGQGLQWMGWISHEGDKKVIVERFKAKVTIDWDRSTNTAYLQLSGLTSEDTAVYYCAKGSKHRLRDYALYDEDGALNWAVDVDYLANLEFWGQGTAVTVSS
VL: DFVLTQSPLSLSVTPGESASISCKSDHSLQHGDRNNYLAWYVQKPGRSPQLLIDLASERASGVPDRFSGSGSRKDFTLKIDRVEAEDVGTYYCMQGRESPWTFGQGTKVDIK
- IC80 (µg/ml) with constrains [12]: 1.1 µg/mL
- IC80 (µg/ml) with constrains [13]: 0.028 µg/mL
- IC80 (µg/ml) with constrains [14]: 0.063 µg/mL
- IC80 (µg/ml) with constrains [15]: 0.044 µg/mL
- IC80 (µg/ml) with constrains [16]: 0.121 µg/mL
- IC80 (µg/ml) with constrains [17]: 0.022 µg/mL
- IC80 (µg/ml) with constrains [18]: > 100 µg/mL
- IC80 (µg/ml) with constrains [19]: 0.869 µg/mL

B6: ePGDM13 (antibody, V domains shown)
VH: QAQLVQSGPEVRKPGTSVKVSCKNPGNTLTTYDLHWVRQVPGQGLQWMGWISHEGDKKVIVERFKAKVTIDWDRSTNTAYLQLSGLTSEDTAVYYCAKGSKHRLRDYALYDEDGALNWAVDVDYLANLEFWGQGTAVTVSS
VL: DIVLTQSPLSLSVTPGESASISCKSSHSLQHGDRNNYLAWYVQKPGRSPQLLLDLASERASGVPDRFSGSGSEKDFTLKISRVETEDVGTYYCMQGRESPWTFGQGTKVDIK
- IC80 (µg/ml) with constrains [12]: 0.776 µg/mL
- IC80 (µg/ml) with constrains [13]: 0.031 µg/mL
- IC80 (µg/ml) with constrains [14]: 0.022 µg/mL
- IC80 (µg/ml) with constrains [15]: 0.071 µg/mL
- IC80 (µg/ml) with constrains [16]: 0.196 µg/mL
- IC80 (µg/ml) with constrains [17]: 0.022 µg/mL
- IC80 (µg/ml) with constrains [18]: > 100 µg/mL
- IC80 (µg/ml) with constrains [19]: 2.07 µg/mL

B7: PGDM1400 (antibody, V domains shown)
VH: QVHLTQSGPEVRKPGTSVKVSCKAPGNTLKTYDLHWVRSVPGQGLQWMGWISHEGDKKVIVERFKAKVTIDWDRSTNTAYLQLSGLTSGDTAVYYCAKGSKHRLRDYALYDDDGALNWAVDVDYLSNLEFWGQGTAVTVSS
VL: DFVLTQSPHSLSVTPGESASISCKSSHSLIHGDRNNYLAWYVQKPGRSPQLLIYLASSRASGVPDRFSGSGSDKDFTLKISRVETEDVGTYYCMQGRESPWTFGQGTKVDIK
- IC80 (µg/ml) with constrains [12]: 2.19 µg/mL
- IC80 (µg/ml) with constrains [13]: 0.018 µg/mL
- IC80 (µg/ml) with constrains [14]: 0.037 µg/mL
- IC80 (µg/ml) with constrains [15]: 0.099 µg/mL
- IC80 (µg/ml) with constrains [16]: 0.39 µg/mL
- IC80 (µg/ml) with constrains [17]: 0.034 µg/mL
- IC80 (µg/ml) with constrains [18]: > 100 µg/mL
- IC80 (µg/ml) with constrains [19]: > 100 µg/mL
